In PMC8048842, “A Cyanine‐Bridged Somatostatin Hybrid Probe for Multimodal SSTR2 Imaging in Vitro and in Vivo: Synthesis and Evaluation” (Chembiochem, 2021):
Read-outs that look alike come from different tables or passages of the source.

Legend:
[1] = system: BON‐SSTR2 cells; assay: Toxicity test, metabolic activity (AlamarBlue); type: cell-based, human; conditions: 96 h treatment, up to a concentration of 10 μM, quadruplicates, n=2 (Figure S2)
Experimental: (§1) Toxicity tests: BON‐SSTR2 cells were seeded in quadruplicates in 96 well plates at a density of 5,000 cells per well and grown overnight. […] Metabolic activity and cell number were determined after another 96 h. For this, 100 μL medium containing AlamarBlue™ redox indicator (ThermoFisher) were added on top of each well, incubated for 3–4 h and the resulting fluorescence was measured using an EnVision Multilabel Plate Reader (PerkinElmer). Afterwards, the supernatant was removed; cells were fixated with 4 % v/v formaldehyde for 10 min and stained with 1 μg/mL DAPI in PBS/0.1 % v/v Triton for another 10 min. Four fields per well were imaged using an IN Cell Analyzer 1000 (GE Healthcare) with a 4x objective and nuclei were counted by Investigator software (GE Healthcare). All values were normalized to the control treated with vehicle and analyzed using GraphPad Prism 5.04.

[2] = system: BON‐SSTR2 cells; assay: Toxicity test, cell number (DAPI nuclei counting); type: cell-based, human; conditions: 96 h treatment, up to a concentration of 10 μM, quadruplicates, n=2 (Figure S2)
Experimental: as §1

[3] = target: T1, ratSSTR2‐GFP fusion protein (Rattus norvegicus, UniProt P30680); assay: Endocytosis / receptor internalization assay in RIN1038 cells; type: cell-based
T1 construct: expressed in transfected cells
T1 sequence (P30680 whole entry, the tested form may be a part): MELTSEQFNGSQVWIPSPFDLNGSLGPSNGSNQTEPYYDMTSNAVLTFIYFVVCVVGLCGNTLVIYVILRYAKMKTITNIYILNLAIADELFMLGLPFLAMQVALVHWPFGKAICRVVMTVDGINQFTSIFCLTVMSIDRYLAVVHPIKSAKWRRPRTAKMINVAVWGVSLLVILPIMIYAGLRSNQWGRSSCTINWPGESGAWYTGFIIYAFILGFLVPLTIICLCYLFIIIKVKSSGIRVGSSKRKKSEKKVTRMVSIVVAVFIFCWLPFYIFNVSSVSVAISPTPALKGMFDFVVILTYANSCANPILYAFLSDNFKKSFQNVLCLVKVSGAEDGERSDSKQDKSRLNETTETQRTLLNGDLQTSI
Source text: Endocytosis assay: Rat insulinoma RIN1038 cells stably expressing a ratSSTR2‐GFP fusion protein almost exclusively show green cell membrane fluorescence in the resting state while in the presence of a functional agonist, the receptor‐GFP fusion protein is translocated to a perinuclear endocytic vesicle compartment. This shift is readily recognized by inspection of the fluorescent image and can be detected by software‐based quantitation algorithms. […] Mounted cells were imaged using a confocal laser‐scanning microscope (LSM510, Carl Zeiss) with a helium–neon laser at 488 and 543 nm, BP505‐525 and LP560 emission filters and a 63x NeoFluar oil immersion objective. […] For automated microscopy, microscopic fluorescence images were recorded by an IN Cell Analyzer 1000 (GE Healthcare) with 20x magnification at 5 frames per well in a 96 well format. Image processing was performed with In Cell Investigator software (GE Healthcare) applying the provided granularity algorithm. The output of the analysis was indicated as vesicle area/cell and was utilized for calculation of concentration‐response curves resulting in the determination of half‐maximal activity (EC50).

[4] = in vivo; conditions: female, NMRI-Foxn1nu/Foxn1nu nude, mouse, iv, total radioactivity

| EC50 ([3]; RIN1038-rSSTR2GFP, axis log DOTA-ICC-TATE [M], R square 0.9899, read-out: EC50 internalization as printed in Figure S2 D) | cellular uptake: colocalization of ICC dye signal with internalized GFP‐fused SSTR2 ([3]; RIN1038 cells overexpressing SSTR2‐GFP, 1 μM conjugate, 30 min, 37 °C, confocal microscopy) | EC50 ([3]; RIN1038 ratSSTR2‐GFP cells, eleven concentrations 3 pM–300 nM, 30 min, 37 °C, quadruplicates, vesicle area/cell, read-out: EC50 of SSTR2‐GFP fusion protein internalization) | SMILES | inhibition of metabolism (AlamarBlue fluorescence, % control) [1] | inhibition of proliferation (cell count, DAPI, % control) [2] | tissue uptake at 1 h ([4]; ex vivo biodistribution uptake in kidneys) | tissue uptake at 1 h ([4]; ex vivo biodistribution uptake in liver) |
| --- | --- | --- | --- | --- | --- | --- | --- |
| 4.21e-10 M | clearly colocalized | 4.2e-10 M | C[C@@H](O)[C@H](NC(=O)[C@@H]1CSSC[C@H](NC(=O)[C@@H](Cc2ccccc2)NC(=O)c2ccc3c(c2)C(C)(C)/C(=C/C=C/C2=[N+](C)c4ccc(CNC(=O)CNC(=O)CN5CCN(CC(=O)O)CCN(CC(=O)O)CCN(CC(=O)O)CC5)cc4C2(C)C)N3CCCCS(=O)(=O)[O-])C(=O)N[C@@H](Cc2ccc(O)cc2)C(=O)N[C@H](Cc2c[nH]c3ccccc23)C(=O)N[C@@H](CCCCN)C(=O)N[C@@H]([C@@H](C)O)C(=O)N1)C(=O)O [DOTA‐ICC‐TATE] | does not inhibit | does not inhibit |  |  |
|  |  |  | C[C@@H](O)[C@H](NC(=O)[C@@H]1CSSC[C@H](NC(=O)[C@@H](Cc2ccccc2)NC(=O)c2ccc3c(c2)C(C)(C)/C(=C/C=C/C2=[N+](C)c4ccc(CNC(=O)CNC(=O)CN5CCN(CC(=O)O)CCN(CC(=O)O)CCN(CC(=O)O)CC5)cc4C2(C)C)N3CCCCS(=O)(=O)[O-])C(=O)N[C@@H](Cc2ccc(O)cc2)C(=O)N[C@H](Cc2c[nH]c3ccccc23)C(=O)N[C@@H](CCCCN)C(=O)N[C@@H]([C@@H](C)O)C(=O)N1)C(=O)O [^68Ga‐DOTA‐ICC‐TATE, metal not drawn] |  |  | ~30 %ID/g | 5 %ID/g |
